According to WO2000069914A2:

Target: recombinant Epithelial Glycoprotein-2 (EGP-2), baculovirus-expressed, purified (human) (UniProt P16422)
Experiment: SPR (BIAcore), scFv over amine-coupled recombinant EGP-2

UniProt P16422, sequence (P16422 24-265 limits assumed): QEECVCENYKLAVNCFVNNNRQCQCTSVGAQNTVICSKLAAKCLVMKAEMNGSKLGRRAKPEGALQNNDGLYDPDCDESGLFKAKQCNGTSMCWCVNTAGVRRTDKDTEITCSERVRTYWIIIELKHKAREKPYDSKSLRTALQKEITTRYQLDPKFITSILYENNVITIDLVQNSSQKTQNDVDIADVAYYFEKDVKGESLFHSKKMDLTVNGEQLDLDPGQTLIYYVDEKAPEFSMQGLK

Substance: scFv MOC-31
- koff: 0.00034 s⁻¹
